Patent US20220048967A1 (published 2022)
Numbering of substitutions follows the chain as printed. Numbered stars: 1 amine (or outer) side, 2 acyl side, 3 side chain; on linkers, the order of the positions; unused ones are H or OH. Square brackets hold non-standard residues; d marks the D form. Side chains are listed from the residue outwards. Ends that are not written are not given here. * marks the point of attachment. C20 diacid = O=C(O)CCCCCCCCCCCCCCCCCCC(=O)*; C18 diacid = O=C(O)CCCCCCCCCCCCCCCCC(=O)*; γGlu = O=C(O)[C@H](CCC(=O)[*:2])N[*:1]; αMeF = C[C@](N)(Cc1ccccc1)C(=O)O; AEEA = NCCOCCOCC(=O)O; Aib = CC(C)(N)C(=O)O

T1: human gastric inhibitory peptide receptor (GIPR) (human, UniProt P48546 22-466)
T1 sequence (looked up): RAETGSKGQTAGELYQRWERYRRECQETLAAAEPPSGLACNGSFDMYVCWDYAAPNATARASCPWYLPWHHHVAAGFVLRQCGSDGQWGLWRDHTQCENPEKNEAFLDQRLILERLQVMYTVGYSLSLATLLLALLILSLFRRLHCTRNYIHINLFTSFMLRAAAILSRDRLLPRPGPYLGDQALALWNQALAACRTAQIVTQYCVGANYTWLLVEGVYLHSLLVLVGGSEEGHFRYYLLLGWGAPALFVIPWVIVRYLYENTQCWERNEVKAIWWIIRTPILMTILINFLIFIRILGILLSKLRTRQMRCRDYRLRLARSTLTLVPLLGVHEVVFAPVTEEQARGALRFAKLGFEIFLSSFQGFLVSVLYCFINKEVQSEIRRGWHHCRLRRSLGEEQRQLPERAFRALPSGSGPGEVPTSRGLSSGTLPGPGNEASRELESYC

B1: Example 234 (peptide)
peptide: YXEGTXTSDXSILLDXKAQXEFIXYLIEGGPSSGAPPPS
modifications: Y-Aib-EGT-αMeF(2F)-TSD-4Pal-SILLD-Dab-K((2-[2-(2-Amino-ethoxy)-ethoxy]-acetyl)2-(γ-Glu)-CO-(CH2)16-CO2H)AQ-Aib-EFI-(D-Glu)-YLIEGGPSSGAPPPS-NH2
B2: Example 228 (peptide)
peptide: Y[Aib]EGT[αMeF]TSDYSIXLDKK([AEEA-AEEA-γGlu-C20 diacid])AQ[Aib]EFI[dE]YLIEGGPSSG-NH2
modifications: not fully specified (residue 13); printed as Y-Aib-EGT-αMeF-TSDYSI-αMeF-LDKK((2-[2-(2-Amino-ethoxy)-ethoxy]-acetyl)2-(γ-Glu)-CO-(CH2)18-CO2H)AQ-Aib-EFI-(D-Glu)-YLIEGGPSSG-NH2
B3: Example 1 (peptide)
peptide: B1 peptide with X10Y, L13X, X16E
modifications: Aib2, αMeF(2F)6, αMeL13, K17 conjugated to (2-[2-(2-Amino-ethoxy)-ethoxy]-acetyl)2-(γ-Glu)-CO-(CH2)18-CO2H, Aib20, D-Glu24, C-terminal amide (NH2)
B4: Example 357 (peptide)
peptide: XXEGTFTSDYSIXLDXKAQXAFIXYLIEGGPSSGAPPPS
modifications: D-Tyr1, Aib2, αMeL13, Orn16, K17 conjugated to (2-[2-(2-Amino-ethoxy)-ethoxy]-acetyl)2-(γ-Glu)-CO-(CH2)18-CO2H, Aib20, D-Glu24, C-terminal amide (NH2)
B5: Example 2 (peptide)
peptide: B1 peptide with X10Y, L13X
modifications: Aib2, αMeF(2F)6, αMeL13, Orn16, K17 conjugated to (2-[2-(2-Amino-ethoxy)-ethoxy]-acetyl)2-(γ-Glu)-CO-(CH2)16-CO2H, Aib20, D-Glu24, C-terminal amide (NH2)
B6: Example 4 (peptide)
peptide: B1 peptide with L13X, Y25X
modifications: Aib2, αMeF(2F)6, 4Pal10, αMeL13, Orn16, K17 conjugated to (2-[2-(2-Amino-ethoxy)-ethoxy]-acetyl)2-(γ-Glu)-CO-(CH2)16-CO2H, Aib20, D-Glu24, αMeY25, C-terminal amide (NH2)
B7: Example 356 (peptide)
peptide: B4 peptide with X16K
modifications: D-Tyr1, Aib2, αMeL13, K17 conjugated to (2-[2-(2-Amino-ethoxy)-ethoxy]-acetyl)2-(γ-Glu)-CO-(CH2)18-CO2H, Aib20, D-Glu24, C-terminal amide (NH2)
B8: Example 266 (peptide)
peptide: Y[Aib]EGTFTSDYSILLDKK([AEEA-AEEA-γGlu-C18 diacid])AQ[Aib]AFIEYLIEGGPSSG-NH2
modifications: N-terminus assumed
SMILES: CC[C@H](C)[C@H](NC(=O)[C@H](CC(C)C)NC(=O)[C@H](Cc1ccc(O)cc1)NC(=O)[C@H](CCC(=O)O)NC(=O)[C@@H](NC(=O)[C@H](Cc1ccccc1)NC(=O)[C@H](C)NC(=O)C(C)(C)NC(=O)[C@H](CCC(N)=O)NC(=O)[C@H](C)NC(=O)[C@H](CCCCNC(=O)COCCOCCNC(=O)COCCOCCNC(=O)CC[C@H](NC(=O)CCCCCCCCCCCCCCCCC(=O)O)C(=O)O)NC(=O)[C@H](CCCCN)NC(=O)[C@H](CC(=O)O)NC(=O)[C@H](CC(C)C)NC(=O)[C@H](CC(C)C)NC(=O)[C@@H](NC(=O)[C@H](CO)NC(=O)[C@H](Cc1ccc(O)cc1)NC(=O)[C@H](CC(=O)O)NC(=O)[C@H](CO)NC(=O)[C@@H](NC(=O)[C@H](Cc1ccccc1)NC(=O)[C@@H](NC(=O)CNC(=O)[C@H](CCC(=O)O)NC(=O)C(C)(C)NC(=O)[C@@H](N)Cc1ccc(O)cc1)[C@@H](C)O)[C@@H](C)O)[C@@H](C)CC)[C@@H](C)CC)C(=O)N[C@@H](CCC(=O)O)C(=O)NCC(=O)NCC(=O)N1CCC[C@H]1C(=O)N[C@@H](CO)C(=O)N[C@@H](CO)C(=O)NCC(N)=O
B9: Example 300 (peptide)
peptide: YXEGTFTSDYSIXLDKKAQXAFIEYLIEGGPSSG
modifications: Aib2, αMeL13, K17 conjugated to (2-[2-(2-Amino-ethoxy)-ethoxy]-acetyl)2-(γ-Glu)-CO-(CH2)16-CO2H, Aib20, C-terminal amide (NH2)
B10: Example 301 (peptide)
peptide: B9 peptide with F6X, X13L
modifications: Aib2, αMeF6, K17 conjugated to (2-[2-(2-Amino-ethoxy)-ethoxy]-acetyl)2-(γ-Glu)-CO-(CH2)16-CO2H, Aib20, C-terminal amide (NH2)
B11: Example 303 (peptide)
peptide: B9 peptide with K16E
modifications: Aib2, αMeL13, K17 conjugated to (2-[2-(2-Amino-ethoxy)-ethoxy]-acetyl)2-(γ-Glu)-CO-(CH2)16-CO2H, Aib20, C-terminal amide (NH2)
B12: Example 302 (peptide)
peptide: B9 peptide with F6X, X13L
modifications: Aib2, αMeF(2F)6, K17 conjugated to (2-[2-(2-Amino-ethoxy)-ethoxy]-acetyl)2-(γ-Glu)-CO-(CH2)16-CO2H, Aib20, C-terminal amide (NH2)
B13: Example 267 (peptide)
peptide: Y[Aib]EGTFTSDYSILLDKK([AEEA-AEEA-γGlu-C18 diacid])AQ[Aib]AFIEYLIEGG-NH2
modifications: N-terminus assumed
SMILES: CC[C@H](C)[C@H](NC(=O)[C@H](CC(C)C)NC(=O)[C@H](Cc1ccc(O)cc1)NC(=O)[C@H](CCC(=O)O)NC(=O)[C@@H](NC(=O)[C@H](Cc1ccccc1)NC(=O)[C@H](C)NC(=O)C(C)(C)NC(=O)[C@H](CCC(N)=O)NC(=O)[C@H](C)NC(=O)[C@H](CCCCNC(=O)COCCOCCNC(=O)COCCOCCNC(=O)CC[C@H](NC(=O)CCCCCCCCCCCCCCCCC(=O)O)C(=O)O)NC(=O)[C@H](CCCCN)NC(=O)[C@H](CC(=O)O)NC(=O)[C@H](CC(C)C)NC(=O)[C@H](CC(C)C)NC(=O)[C@@H](NC(=O)[C@H](CO)NC(=O)[C@H](Cc1ccc(O)cc1)NC(=O)[C@H](CC(=O)O)NC(=O)[C@H](CO)NC(=O)[C@@H](NC(=O)[C@H](Cc1ccccc1)NC(=O)[C@@H](NC(=O)CNC(=O)[C@H](CCC(=O)O)NC(=O)C(C)(C)NC(=O)[C@@H](N)Cc1ccc(O)cc1)[C@@H](C)O)[C@@H](C)O)[C@@H](C)CC)[C@@H](C)CC)C(=O)N[C@@H](CCC(=O)O)C(=O)NCC(=O)NCC(N)=O
B14: Example 272 (peptide)
peptide: Y[Aib]EGTFTSDYSILLDKK([AEEA-AEEA-γGlu-C18 diacid])AQ[Aib]AFIEYLIAGGPSSG-NH2
modifications: N-terminus assumed
SMILES: CC[C@H](C)[C@H](NC(=O)[C@H](CC(C)C)NC(=O)[C@H](Cc1ccc(O)cc1)NC(=O)[C@H](CCC(=O)O)NC(=O)[C@@H](NC(=O)[C@H](Cc1ccccc1)NC(=O)[C@H](C)NC(=O)C(C)(C)NC(=O)[C@H](CCC(N)=O)NC(=O)[C@H](C)NC(=O)[C@H](CCCCNC(=O)COCCOCCNC(=O)COCCOCCNC(=O)CC[C@H](NC(=O)CCCCCCCCCCCCCCCCC(=O)O)C(=O)O)NC(=O)[C@H](CCCCN)NC(=O)[C@H](CC(=O)O)NC(=O)[C@H](CC(C)C)NC(=O)[C@H](CC(C)C)NC(=O)[C@@H](NC(=O)[C@H](CO)NC(=O)[C@H](Cc1ccc(O)cc1)NC(=O)[C@H](CC(=O)O)NC(=O)[C@H](CO)NC(=O)[C@@H](NC(=O)[C@H](Cc1ccccc1)NC(=O)[C@@H](NC(=O)CNC(=O)[C@H](CCC(=O)O)NC(=O)C(C)(C)NC(=O)[C@@H](N)Cc1ccc(O)cc1)[C@@H](C)O)[C@@H](C)O)[C@@H](C)CC)[C@@H](C)CC)C(=O)N[C@@H](C)C(=O)NCC(=O)NCC(=O)N1CCC[C@H]1C(=O)N[C@@H](CO)C(=O)N[C@@H](CO)C(=O)NCC(N)=O
B15: Example 361 (peptide)
peptide: B4 peptide with X16K, I23V, E28A
modifications: D-Tyr1, Aib2, αMeL13, K17 conjugated to (2-[2-(2-Amino-ethoxy)-ethoxy]-acetyl)2-(γ-Glu)-CO-(CH2)18-CO2H, Aib20, D-Glu24, C-terminal amide (NH2)
B16: Example 364 (peptide)
peptide: B4 peptide with I23V, E28A
modifications: D-Tyr1, Aib2, αMeL13, Orn16, K17 conjugated to (2-[2-(2-Amino-ethoxy)-ethoxy]-acetyl)2-(γ-Glu)-CO-(CH2)16-CO2H, Aib20, D-Glu24, C-terminal amide (NH2)
B17: Example 362 (peptide)
peptide: B4 peptide with I23V, E28A
modifications: D-Tyr1, Aib2, αMeL13, Orn16, K17 conjugated to (2-[2-(2-Amino-ethoxy)-ethoxy]-acetyl)2-(γ-Glu)-CO-(CH2)18-CO2H, Aib20, D-Glu24, C-terminal amide (NH2)
B18: Example 315 (peptide)
peptide: B4 peptide with X1Y, X13L, X16K, X24E
modifications: Aib2, K17 conjugated to (2-[2-(2-Amino-ethoxy)-ethoxy]-acetyl)2-(γ-Glu)-CO-(CH2)16-CO2H, Aib20, C-terminal amide (NH2)
B19: Example 360 (peptide)
peptide: B4 peptide with I23V, X24E
modifications: D-Tyr1, Aib2, αMeL13, Orn16, K17 conjugated to (2-[2-(2-Amino-ethoxy)-ethoxy]-acetyl)2-(γ-Glu)-CO-(CH2)18-CO2H, Aib20, C-terminal amide (NH2)
B20: Example 338 (peptide)
peptide: FXEGTFTSDYSIXLDKKAQXEFIEYLIAGGPSSGAPPPS
modifications: not fully specified; Aib2, αMeL13, K17 conjugated to (2-[2-(2-Amino-ethoxy)-ethoxy]-acetyl)2-(γ-Glu)-CO-(CH2)18-CO2H, Aib20, C-terminal amide (NH2)

Each binder was assayed against T1, human gastric inhibitory peptide … (assay: cell-based or functional assay).

| Binder | hGIPR cAMP EC50 ratio | hGIPR cAMP Rel EC50 [nM] |
| --- | --- | --- |
| B1 | 3.83 | 0.0372 |
| B2 | 3.86 | 0.0503 |

Each binder was assayed against human GLP-1 receptor (GLP-1R) (human, UniProt P43220 24-463) (assay: cell-based or functional assay).

| Binder | hGLP1R cAMP EC50 ratio | hGLP1R cAMP Rel EC50 [nM] |
| --- | --- | --- |
| B1 | 0.317 | 0.0926 |
| B2 | 1.1 | 0.0282 |

These binders were tested against Pro-Link-tagged Human GLP-1R (human, UniProt P43220 24-463) (assay: cell-based or functional assay).

| Binder | hGLP1R B-Arrestin2 % Top [%] | hGLP1R B-Arrestin2 Rel EC50 [nM] |
| --- | --- | --- |
| B3 | 105 | 5 |
| B4 | 18.2 | 118 |
| B5 | 96.1 | 8.82 |
| B6 | 92.4 | 4.8 |
| B7 |  | > 10500 |
| B8 | 17.1 | 16 |
| B9 | 38.4 | 5.4 |
| B10 | 93.7 | 2.67 |
| B11 | 47.7 | 17.9 |
| B12 | 98.4 | 2.19 |
| B13 | 16.5 | 9.01 |
| B14 |  | > 12000 |
| B15 | 20.2 | 269 |
| B16 |  | > 12000 |
| B17 |  | > 11000 |
| B18 | 25.4 | 19.9 |
| B19 | 25.8 | 39.5 |
| B20 | 47 | 18.9 |

These binders were tested against human GLP-1 receptor (human, UniProt P43220 24-463) (assay: cell-based or functional assay).

| Binder | hGLP1R GTPgS % Top [%] | hGLP1R GTPgS Rel EC50 [nM] |
| --- | --- | --- |
| B3 | 91.1 | 0.235 |
| B5 | 95.9 | 0.642 |
| B6 | 86.9 | 0.245 |
| B8 | 63.4 | 0.865 |
| B9 | 85.6 | 0.405 |
| B10 | 91.4 | 0.435 |
| B11 | 74.3 | 0.547 |
| B12 | 98.6 | 0.268 |
| B13 | 62.3 | 0.867 |
| B14 | 66.5 | 0.651 |
| B18 | 44.2 | 0.601 |
